Experimental data: US20220089730A1 (published 2022)
Positions count from the first letter of the chain named.

B1: IAB2M γ3/γ1 EH7 (other)
chain: DIVMTQSPSSLSASVGDRVTITCKASQDVGTAVDWYQQKPGKAPKLLIYWASTRHTGVPDRFTGSGSGTDFTLTISSLQPEDFADYFCQQYNSYPLTFGGGTKLEIKGSTSGGGSGGGSGGGGSSEVQLVQSGAEVKKPGASVKISCKTSGYTFTEYTIHWVKQASGKGLEWIGNINPNNGGTTYNQKFEDRATLTVDKSTSTAYMELSSLRSEDTAVYYCAAGWNFDYWGQGTTVTVSSELKTPLGDTTHTCPPCPPCGGGSSGGGSGGQPREPQVYTLPPSRDELTKNQVSLTCLVKGFYPSDIAVEWESNGQPENNYKTTPPVLDSDGSFFLYSKLTVDKSRWQQGNVFSCSVMHEALHNHYTQKSLSLSPGK
B2: IAB2M γ3/γ1 EH6 (other)
chain: B1 chain with P254V, P255E
B3: IAB2M γ3/γ1 EH8 (other)
chain: DIVMTQSPSSLSASVGDRVTITCKASQDVGTAVDWYQQKPGKAPKLLIYWASTRHTGVPDRFTGSGSGTDFTLTISSLQPEDFADYFCQQYNSYPLTFGGGTKLEIKGSTSGGGSGGGSGGGGSSEVQLVQSGAEVKKPGASVKISCKTSGYTFTEYTIHWVKQASGKGLEWIGNINPNNGGTTYNQKFEDRATLTVDKSTSTAYMELSSLRSEDTAVYYCAAGWNFDYWGQGTTVTVSSELKTPLGDTTHTCPPCPPCPPCGGGSSGGGSGGQPREPQVYTLPPSRDELTKNQVSLTCLVKGFYPSDIAVEWESNGQPENNYKTTPPVLDSDGSFFLYSKLTVDKSRWQQGNVFSCSVMHEALHNHYTQKSLSLSPGK
B4: IAB2M γ1 EH5 (other)
chain: DIVMTQSPSSLSASVGDRVTITCKASQDVGTAVDWYQQKPGKAPKLLIYWASTRHTGVPDRFTGSGSGTDFTLTISSLQPEDFADYFCQQYNSYPLTFGGGTKLEIKGSTSGGGSGGGSGGGGSSEVQLVQSGAEVKKPGASVKISCKTSGYTFTEYTIHWVKQASGKGLEWIGNINPNNGGTTYNQKFEDRATLTVDKSTSTAYMELSSLRSEDTAVYYCAAGWNFDYWGQGTTVTVSSEPKSSDKTHTCPPCPPCPPCGGGSSGGGSGGQPREPQVYTLPPSRDELTKNQVSLTCLVKGFYPSDIAVEWESNGQPENNYKTTPPVLDSDGSFFLYSKLTVDKSRWQQGNVFSCSVMHEALHNHYTQKSLSLSPGK
B5: IAB2M γ1 EH3 (other)
chain: DIVMTQSPSSLSASVGDRVTITCKASQDVGTAVDWYQQKPGKAPKLLIYWASTRHTGVPDRFTGSGSGTDFTLTISSLQPEDFADYFCQQYNSYPLTFGGGTKLEIKGSTSGGGSGGGSGGGGSSEVQLVQSGAEVKKPGASVKISCKTSGYTFTEYTIHWVKQASGKGLEWIGNINPNNGGTTYNQKFEDRATLTVDKSTSTAYMELSSLRSEDTAVYYCAAGWNFDYWGQGTTVTVSSEPKSSDKTHTCPPCPPCGGGSSGGGSGGQPREPQVYTLPPSRDELTKNQVSLTCLVKGFYPSDIAVEWESNGQPENNYKTTPPVLDSDGSFFLYSKLTVDKSRWQQGNVFSCSVMHEALHNHYTQKSLSLSPGK
B6: IAB22M γ3/γ1 EH7 (other)
chain: DVQITQSPSSLSASVGDRVTITCRTSRSISQYLAWYQQKPGKVPKLLIYSGSTLQSGVPSRFSGSGSGTDFTLTISSLQPEDVATYYCQQHNENPLTFGGGTKVEIKGSTSGGGSGGGSGGGGSSEVQLVESGGGLVQPGGSLRLSCAASGFNIKDTYIHFVRQAPGKGLEWIGRIDPANDNTLYASKFQGKATISADTSKNTAYLQMNSLRAEDTAVYYCGRGYGYYVFDHWGQGTLVTVSSELKTPLGDTTHTCPPCPPCGGGSSGGGSGGQPREPQVYTLPPSRDELTKNQVSLTCLVKGFYPSDIAVEWESNGQPENNYKTTPPVLDSDGSFFLYSKLTVDKSRWQQGNVFSCSVMHEALHNHYTQKSLSLSPGK
B7: IAB22M γ3/γ1 EH6 (other)
chain: B6 chain with P257V, P258E
B8: IAB22M γ1 EH3 (other)
chain: DVQITQSPSSLSASVGDRVTITCRTSRSISQYLAWYQQKPGKVPKLLIYSGSTLQSGVPSRFSGSGSGTDFTLTISSLQPEDVATYYCQQHNENPLTFGGGTKVEIKGSTSGGGSGGGSGGGGSSEVQLVESGGGLVQPGGSLRLSCAASGFNIKDTYIHFVRQAPGKGLEWIGRIDPANDNTLYASKFQGKATISADTSKNTAYLQMNSLRAEDTAVYYCGRGYGYYVFDHWGQGTLVTVSSEPKSSDKTHTCPPCPPCGGGSSGGGSGGQPREPQVYTLPPSRDELTKNQVSLTCLVKGFYPSDIAVEWESNGQPENNYKTTPPVLDSDGSFFLYSKLTVDKSRWQQGNVFSCSVMHEALHNHYTQKSLSLSPGK
B9: IAB22M γ3/γ1 EH8 (other)
chain: DVQITQSPSSLSASVGDRVTITCRTSRSISQYLAWYQQKPGKVPKLLIYSGSTLQSGVPSRFSGSGSGTDFTLTISSLQPEDVATYYCQQHNENPLTFGGGTKVEIKGSTSGGGSGGGSGGGGSSEVQLVESGGGLVQPGGSLRLSCAASGFNIKDTYIHFVRQAPGKGLEWIGRIDPANDNTLYASKFQGKATISADTSKNTAYLQMNSLRAEDTAVYYCGRGYGYYVFDHWGQGTLVTVSSELKTPLGDTTHTCPPCPPCPPCGGGSSGGGSGGQPREPQVYTLPPSRDELTKNQVSLTCLVKGFYPSDIAVEWESNGQPENNYKTTPPVLDSDGSFFLYSKLTVDKSRWQQGNVFSCSVMHEALHNHYTQKSLSLSPGK
B10: IAB22M γ1 EH5 (other)
chain: DVQITQSPSSLSASVGDRVTITCRTSRSISQYLAWYQQKPGKVPKLLIYSGSTLQSGVPSRFSGSGSGTDFTLTISSLQPEDVATYYCQQHNENPLTFGGGTKVEIKGSTSGGGSGGGSGGGGSSEVQLVESGGGLVQPGGSLRLSCAASGFNIKDTYIHFVRQAPGKGLEWIGRIDPANDNTLYASKFQGKATISADTSKNTAYLQMNSLRAEDTAVYYCGRGYGYYVFDHWGQGTLVTVSSEPKSSDKTHTCPPCPPCPPCGGGSSGGGSGGQPREPQVYTLPPSRDELTKNQVSLTCLVKGFYPSDIAVEWESNGQPENNYKTTPPVLDSDGSFFLYSKLTVDKSRWQQGNVFSCSVMHEALHNHYTQKSLSLSPGK
B11: IAB22M γ2 EH2 (other)
chain: DVQITQSPSSLSASVGDRVTITCRTSRSISQYLAWYQQKPGKVPKLLIYSGSTLQSGVPSRFSGSGSGTDFTLTISSLQPEDVATYYCQQHNENPLTFGGGTKVEIKGSTSGGGSGGGSGGGGSSEVQLVESGGGLVQPGGSLRLSCAASGFNIKDTYIHFVRQAPGKGLEWIGRIDPANDNTLYASKFQGKATISADTSKNTAYLQMNSLRAEDTAVYYCGRGYGYYVFDHWGQGTLVTVSSERKSCVECPPCPGGGSSGGGSGGQPREPQVYTLPPSREEMTKNQVSLTCLVKGFYPSDIAVEWESNGQPENNYKTTPPMLDSDGSFFLYSKLTVDKSRWQQGNVFSCSVMHEALHNHYTQKSLSLSPGK
B12: IAB2M γ2 EH1 (other)
chain: DIVMTQSPSSLSASVGDRVTITCKASQDVGTAVDWYQQKPGKAPKLLIYWASTRHTGVPDRFTGSGSGTDFTLTISSLQPEDFADYFCQQYNSYPLTFGGGTKLEIKGSTSGGGSGGGSGGGGSSEVQLVQSGAEVKKPGASVKISCKTSGYTFTEYTIHWVKQASGKGLEWIGNINPNNGGTTYNQKFEDRATLTVDKSTSTAYMELSSLRSEDTAVYYCAAGWNFDYWGQGTTVTVSSERKCCVECPPCPGGGSSGGGSGGQPREPQVYTLPPSREEMTKNQVSLTCLVKGFYPSDIAVEWESNGQPENNYKTTPPMLDSDGSFFLYSKLTVDKSRWQQGNVFSCSVMHEALHNHYTQKSLSLSPGK
B13: IAB2M γ1 EH2 (other)
chain: DIVMTQSPSSLSASVGDRVTITCKASQDVGTAVDWYQQKPGKAPKLLIYWASTRHTGVPDRFTGSGSGTDFTLTISSLQPEDFADYFCQQYNSYPLTFGGGTKLEIKGSTSGGGSGGGSGGGGSSEVQLVQSGAEVKKPGASVKISCKTSGYTFTEYTIHWVKQASGKGLEWIGNINPNNGGTTYNQKFEDRATLTVDKSTSTAYMELSSLRSEDTAVYYCAAGWNFDYWGQGTTVTVSSEPKSSDKTHTCPPCGGGSSGGGSGGQPREPQVYTLPPSRDELTKNQVSLTCLVKGFYPSDIAVEWESNGQPENNYKTTPPVLDSDGSFFLYSKLTVDKSRWQQGNVFSCSVMHEALHNHYTQKSLSLSPGK
B14: IAB2M γ1 EH1 (other)
chain: B13 chain with S245C
B15: IAB2M γ2 EH2 (other)
chain: B12 chain with C244S

The binders below were run against T1, PSMA (Prostate-Specific Membrane Antigen), glutamate carboxypeptidase 2 (UniProt Q04609 1-750) (assay: FACS).

Row | EC50 [pM] | Binder
1 | 186 | B1
2 | 188 | B2
3 | 227 | B3
4 | 183 | B4
5 | 162 | B5

These binders were tested against CD8 (cell surface CD8 on HPB-ALL cells) (UniProt P01732 22-235; A6NJW9 19-210) (assay: FACS).
Chain of CD8 (cell surface CD8 on HPB-ALL cells) (P01732 22-235, chain 1 of 2): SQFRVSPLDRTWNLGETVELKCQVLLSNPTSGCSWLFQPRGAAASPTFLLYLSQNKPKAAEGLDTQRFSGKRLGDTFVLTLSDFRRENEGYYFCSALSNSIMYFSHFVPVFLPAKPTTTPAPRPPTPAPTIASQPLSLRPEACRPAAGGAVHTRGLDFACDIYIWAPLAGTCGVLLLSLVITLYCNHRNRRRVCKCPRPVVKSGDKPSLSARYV
Chain of CD8 (cell surface CD8 on HPB-ALL cells) (A6NJW9 19-210 C51R/T71A, chain 2 of 2): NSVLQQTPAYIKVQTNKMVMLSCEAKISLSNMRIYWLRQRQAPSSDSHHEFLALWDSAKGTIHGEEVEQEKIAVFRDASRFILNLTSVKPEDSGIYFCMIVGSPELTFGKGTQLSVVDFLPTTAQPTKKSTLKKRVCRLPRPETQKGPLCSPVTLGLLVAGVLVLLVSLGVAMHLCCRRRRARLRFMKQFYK

Row | EC50 [pM] | Binder
6 | 170 | B6
7 | 188 | B7
8 | 370 | B8
9 | 163 | B9
10 | 146 | B10
11 | 156 | B11

Each binder was assayed against T1, PSMA (Prostate-Specific Membrane …) (assay: FACS; C4-2 XCL cells).

Row | EC50 [pM] | Binder
12 | 270 | B12
13 | 260 | B13
14 | 400 | B14
15 | 380 | B5

The binders below were run against T1, PSMA (Prostate-Specific Membrane …) (assay: FACS; LNCaP-AR cells).

Row | EC50 [pM] | Binder
16 | 50 | B15
17 | 60 | B13
18 | 50 | B14

What follows are binders tested against T1, PSMA (Prostate-Specific Membrane …) (assay: FACS; table prints γ2 EH2, curve legend prints γ1 EH1).

Row | EC50 [pM] | Binder
19 | 176 | B15
